The record followed here is PMC3211139 (Molecular microbiology, 2011).

Where “and” joins values, the source holds several entries; their conditions need not be identical. Equal entries are not always repeated.

The data set concerns the molecule itself. In words: native gel or EMSA.

B1: AtxA-His (natural protein)
chain: MLTPISIEKEHIRLINLLHFINEQNRWFTIKELSDYLQVADKTVRKYLKLLEDEIPPSWNLLVQKGKGIYLKKPLNESLSFVESKILRKSLNLQICEELVFKKNSMQSLAQKLHLQVGALYPIINQINYDIQSSHLNIKKKPLEISGREQDVRVFMLRLYCNIPNDYWPFPYINKQNITDLINKMEKILNVQMYTYSKHKLCVLFAITISRLLSGNTIDNVSGLILVNKNDDHYKTVASITSELQNSFGVTLHETEISFLALALLLSLGNSITTDSNKTLTSYKKTIMPLAKEITKGIEHKLQLGINYDESFLTYVVLIIKKALDKNFIQYYNYNIKFIRHIKQRHPNTFNTIQECISNLNYTVYSHFDCYEISLLTMHFETQRMLFKNNPKKIYVYTSQGCIHREYISALLEKRYNGLIKIVRNTIINLTNESLQDMEIDIIISNVNLPIKNIPIVQISEFPTERDFHEIKKII
What is called stoichiometry N is the number of molecules, sites or subunits per partner or assembly. Turning to B1, the “stoichiometry N” value is 2 and 4.
